Data taken from patent publication US20250011422A1.

Experiments:
[1] = target: human Siglec-6 on the cell surface (U937, MEC1-002, MEC1-hS6, primary CLL cells) (human) (UniProt O43699); assay: quantitative flow cytometry, primary CLL cells (live, CD20+ CD5+), CLL patient 3071
[2] = target: human Siglec-6 on the cell surface (U937, MEC1-002, MEC1-hS6, primary CLL cells) (human) (UniProt O43699); assay: quantitative flow cytometry, primary CLL cells (live, CD20+ CD5+), CLL patient 2691
[3] = target: human Siglec-6 on the cell surface (U937, MEC1-002, MEC1-hS6, primary CLL cells) (human) (UniProt O43699); assay: quantitative flow cytometry, primary CLL cells (live, CD20+ CD5+), CLL patient 8242
[4] = target: human Siglec-6 on the cell surface (U937, MEC1-002, MEC1-hS6, primary CLL cells) (human) (UniProt O43699); assay: quantitative flow cytometry, primary CLL cells (live, CD20+ CD5+), CLL patient 11944
[5] = target: human Siglec-6 on the cell surface (U937, MEC1-002, MEC1-hS6, primary CLL cells) (human) (UniProt O43699); assay: quantitative flow cytometry, primary CLL cells (live, CD20+ CD5+), CLL patient 4973
[6] = target: human Siglec-6 on the cell surface (U937, MEC1-002, MEC1-hS6, primary CLL cells) (human) (UniProt O43699); assay: quantitative flow cytometry, primary CLL cells (live, CD20+ CD5+), CLL patient 4705
[7] = target: human Siglec-6 on the cell surface (U937, MEC1-002, MEC1-hS6, primary CLL cells) (human) (UniProt O43699); assay: quantitative flow cytometry with bead calibration standard, cell line MEC1-002

human Siglec-6 on the cell surface (U937, MEC1-002, MEC1-hS6, primary CLL cells) (human), sequence (O43699 27-453): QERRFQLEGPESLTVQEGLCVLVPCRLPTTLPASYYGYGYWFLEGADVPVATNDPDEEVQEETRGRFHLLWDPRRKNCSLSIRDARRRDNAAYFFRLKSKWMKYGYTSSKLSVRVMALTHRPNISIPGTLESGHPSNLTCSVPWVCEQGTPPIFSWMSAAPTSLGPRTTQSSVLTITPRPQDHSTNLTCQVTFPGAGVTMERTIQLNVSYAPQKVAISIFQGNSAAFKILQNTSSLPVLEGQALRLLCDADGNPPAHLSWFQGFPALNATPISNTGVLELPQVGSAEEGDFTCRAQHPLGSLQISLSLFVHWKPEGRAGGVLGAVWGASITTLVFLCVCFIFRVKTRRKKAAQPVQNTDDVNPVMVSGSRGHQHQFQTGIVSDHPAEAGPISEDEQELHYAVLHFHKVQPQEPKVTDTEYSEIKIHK

With “commercial mouse anti-human Siglec-6 mAb clone 767329 (R&D Systems) (antibody)” the Siglec-6 (ABC-isotype) [1] was 1540 ABC, the Siglec-6 (ABC-isotype) [2] was 6040 ABC and the Siglec-6 (ABC-isotype) [3] was 843 ABC. For the same substance, the Siglec-6 (ABC-isotype) [4] was 3580 ABC, the Siglec-6 (ABC-isotype) [5] was 3670 ABC and the Siglec-6 (ABC-isotype) [6] was 2430 ABC. For the same substance, the Siglec-6 (ABC-isotype) [7] was 1450 ABC.
